Blank lines part the entries; values can stand above or below the binder they belong to.
T1: Phosphatase-treated Dbf4 purified from yeast cells (S. cerevisiae (endogenous in yeast), UniProt P32325 1-704, treated with λ-phosphatase)
T1 sequence (looked up): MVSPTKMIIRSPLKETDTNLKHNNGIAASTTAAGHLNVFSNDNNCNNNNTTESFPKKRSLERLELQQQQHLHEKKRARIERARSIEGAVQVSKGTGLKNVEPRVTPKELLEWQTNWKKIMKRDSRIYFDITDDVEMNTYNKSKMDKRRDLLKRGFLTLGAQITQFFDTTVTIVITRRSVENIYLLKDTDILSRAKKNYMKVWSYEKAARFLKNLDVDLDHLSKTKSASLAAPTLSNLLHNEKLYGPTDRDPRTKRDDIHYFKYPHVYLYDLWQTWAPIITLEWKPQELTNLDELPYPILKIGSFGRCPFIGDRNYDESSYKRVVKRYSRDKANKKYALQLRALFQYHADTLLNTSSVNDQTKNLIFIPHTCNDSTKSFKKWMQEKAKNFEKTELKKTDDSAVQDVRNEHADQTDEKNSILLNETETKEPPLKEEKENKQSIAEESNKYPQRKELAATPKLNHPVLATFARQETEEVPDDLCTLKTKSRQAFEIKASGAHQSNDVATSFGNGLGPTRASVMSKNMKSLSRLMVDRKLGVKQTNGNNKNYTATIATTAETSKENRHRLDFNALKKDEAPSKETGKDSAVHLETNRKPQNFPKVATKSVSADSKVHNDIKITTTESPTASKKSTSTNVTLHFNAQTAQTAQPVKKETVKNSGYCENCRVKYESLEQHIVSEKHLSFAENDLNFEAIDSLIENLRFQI

T2: Purified recombinant Dbf4 (6His-Dbf4p, pET28a-Dbf4) (S. cerevisiae (budding yeast), UniProt P32325 1-704)
T2 sequence (looked up): T1 sequence (looked up)

T3: GST-Dbf4 (S. cerevisiae (budding yeast), UniProt P32325 1-704)
T3 sequence (looked up): T1 sequence (looked up)

B1: GST-Fkh1 (natural protein, S. cerevisiae (budding yeast), UniProt P40466 1-484, looked up)
chain: MSVTSREQKFSGKYSSYTAQDRQGLVNAVTCVLSSSSDPVAVSSDYSNSLSIAREVNAYAKIAGCDWTYYVQKLEVTIGRNTDSLNLNAVPGTVVKKNIDIDLGPAKIVSRKHAAIRFNLESGSWELQIFGRNGAKVNFRRIPTGPDSPPTVLQSGCIIDIGGVQMIFILPEQETIISDYCLNHLMPKLLSTYGTNGNNNPLLRNIIEGSTYLREQRLQEEARLQQLDHLHTPLSSSSDVNPIGDPHGDTIMMEEDEEDENYTRGGIRPNTYTSSSNNAVTNGNVPHIENPSDLSLDENRYIKPPQSYASMITQAILSTPEGSISLADIYKFISDNYAFYRFSQMAWQNSVRHNLSLNKAFEKVPKRAGQQGKGMNWKISDEVRRDFLNKWNAGKLSKIRRGASVTRQLQLHMSKFGEIPAPESSSIDPRGIKAQKVKKSLQATSSILGESAPQLQRTQLTGQISTTTSMDVTTNANVNNSSLS
B2: Purified recombinant Fkh1 (in vitro recruitment assay) (natural protein, S. cerevisiae (budding yeast), UniProt P40466 1-484, looked up)
chain: B1 chain
B3: GST-Dbf4 (1-390) (domain or fragment, S. cerevisiae (budding yeast), UniProt P32325 1-390, looked up)
chain: MVSPTKMIIRSPLKETDTNLKHNNGIAASTTAAGHLNVFSNDNNCNNNNTTESFPKKRSLERLELQQQQHLHEKKRARIERARSIEGAVQVSKGTGLKNVEPRVTPKELLEWQTNWKKIMKRDSRIYFDITDDVEMNTYNKSKMDKRRDLLKRGFLTLGAQITQFFDTTVTIVITRRSVENIYLLKDTDILSRAKKNYMKVWSYEKAARFLKNLDVDLDHLSKTKSASLAAPTLSNLLHNEKLYGPTDRDPRTKRDDIHYFKYPHVYLYDLWQTWAPIITLEWKPQELTNLDELPYPILKIGSFGRCPFIGDRNYDESSYKRVVKRYSRDKANKKYALQLRALFQYHADTLLNTSSVNDQTKNLIFIPHTCNDSTKSFKKWMQEKAKNFE
B4: His6-Sld3 (natural protein, S. cerevisiae (budding yeast), UniProt P53135 1-668, looked up)
chain: METWEVIASVKEATKGLDLSLDHPLIIKSEDVPSNILQLLQQKNRRQLKHICMKSRKEYFLLEEYGPGFWVKWPYNYFNGYSLPERRTEVVTTVERERAKRETLKTWDELKFKELLHLWSEEPKGSCKLEKDKDLKLDMNPPDMKGESKINDYYSDPKEYIESKYYDALFSIHTPLAYFVKSNLVRLKNTCRTKYGSDSYKIAYQAMLQKFLLSIVQFKDRHDNRLLLEPFSSPIADEKRKNCLTKFVIQDENKNSSTIADLCVVLKSREIKLQILLLLEIIGLNDLDWNFRDFEKKYKLKLKKRSLNLTKKGLVRRRSKKKTSEKDKGIERITTSLDYCEQLDLYLDRACILDILLSSETPNPDAIEASNGTIQEHKKNILDKSKEASLVGFINYVLIPYFNKKVPHAVEFIIQKLKGPSMRPKRALKKVNDSTNVSSPNTVETYNRLSTSQRASRSSIINSVPSSPALRRVDANLFSRKSIASPTPELLNSRTNSNLNEFLESETRSLKRPSQLGRTKSDLTMNHLQKRQFSVSDLSTTRVPNSSTITLKTPFSHSTINAYKTMNNSFRRVGKRKDINETIRLHERVDSEENVQVQATPAVKKRTVTPNKKAQLQSIIESPLNFKDDDTHEGRKNTSNITSTPTNKPPENSSKRRVRRRLFAPEST

Columns and labels:
[1] = target: T1, Phosphatase-treated Dbf4 purified from …; assay: pull-down
[2] = target: T2, Purified recombinant Dbf4 (6His-Dbf4p, …); assay: in vitro origin recruitment assay on DNA beads
His6-Sld3 = target: B4; assay: pull-down
GST-Fkh1 = target: B1; assay: pull-down
GST-Dbf4 = target: T3, GST-Dbf4; assay: pull-down

Binder: B1
binding result [1]: binds

Binder: B2
binding result [2]: binds

Binder: B3
binding result (His6-Sld3): binds

binding result (GST-Fkh1): binds
Binder: KNSGYCENCRVKYESLEQHIVSEKHLSFAENDLNFEAIDSLIENLRFQI (domain or fragment, S. cerevisiae (budding yeast), UniProt P32325 656-704, looked up) [6His-Dbf4 (656-704)]

Binder: B4
binding result (GST-Dbf4): binds

— PMC5795786 (Genes & Development, 2017)
